Values belong to the molecule of their own block, whether it stands above or below them.
Assays:
[1] = molecular target: Myc-tagged full-length human LepR, wild type (human) (UniProt P48357)
[2] = molecular target: Myc-tagged full-length human LepR, wild type (human) (UniProt P48357); remark: listed apart in the source
[3] = molecular target: mouse LepR^D1-D7-zip (Mus musculus | not stated) (UniProt P48356)
mouse leptin [4] = molecular target: T1, mouse leptin (Mus musculus, UniProt P41160 22-167); test: cryo-EM structure; SEC-purified leptin–LepR-zip complex cross-linked with 1 mM BS3, 1–2 mg/ml in PBS, 0.01% fluorinated octyl maltoside; single particle cryo-EM, AlphaFold models docked and refined; conditions: both partners purified
T1 construct: leptin, Mus musculus, produced in E. coli; Two leptin molecules stand in the 2:2 complex with the zippered LepR dimer; also called M. musculus leptin; source: Escherichia coli produced
T1 sequence (P41160 22-167): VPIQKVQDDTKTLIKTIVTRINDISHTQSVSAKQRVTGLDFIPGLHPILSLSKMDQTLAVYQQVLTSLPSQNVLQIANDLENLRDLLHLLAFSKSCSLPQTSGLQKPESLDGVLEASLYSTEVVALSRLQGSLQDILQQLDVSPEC

mouse leptin [5] = molecular target: T1, mouse leptin; test: SEC; mouse leptin incubated with purified LepR-zip overnight at 4 °C at a leptin:LepR ratio of 4:1; Superdex 200 in PBS pH 7.2; co-elution; conditions: both partners purified

Chain of Myc-tagged full-length human LepR, wild type (human) (P48357 22-1165): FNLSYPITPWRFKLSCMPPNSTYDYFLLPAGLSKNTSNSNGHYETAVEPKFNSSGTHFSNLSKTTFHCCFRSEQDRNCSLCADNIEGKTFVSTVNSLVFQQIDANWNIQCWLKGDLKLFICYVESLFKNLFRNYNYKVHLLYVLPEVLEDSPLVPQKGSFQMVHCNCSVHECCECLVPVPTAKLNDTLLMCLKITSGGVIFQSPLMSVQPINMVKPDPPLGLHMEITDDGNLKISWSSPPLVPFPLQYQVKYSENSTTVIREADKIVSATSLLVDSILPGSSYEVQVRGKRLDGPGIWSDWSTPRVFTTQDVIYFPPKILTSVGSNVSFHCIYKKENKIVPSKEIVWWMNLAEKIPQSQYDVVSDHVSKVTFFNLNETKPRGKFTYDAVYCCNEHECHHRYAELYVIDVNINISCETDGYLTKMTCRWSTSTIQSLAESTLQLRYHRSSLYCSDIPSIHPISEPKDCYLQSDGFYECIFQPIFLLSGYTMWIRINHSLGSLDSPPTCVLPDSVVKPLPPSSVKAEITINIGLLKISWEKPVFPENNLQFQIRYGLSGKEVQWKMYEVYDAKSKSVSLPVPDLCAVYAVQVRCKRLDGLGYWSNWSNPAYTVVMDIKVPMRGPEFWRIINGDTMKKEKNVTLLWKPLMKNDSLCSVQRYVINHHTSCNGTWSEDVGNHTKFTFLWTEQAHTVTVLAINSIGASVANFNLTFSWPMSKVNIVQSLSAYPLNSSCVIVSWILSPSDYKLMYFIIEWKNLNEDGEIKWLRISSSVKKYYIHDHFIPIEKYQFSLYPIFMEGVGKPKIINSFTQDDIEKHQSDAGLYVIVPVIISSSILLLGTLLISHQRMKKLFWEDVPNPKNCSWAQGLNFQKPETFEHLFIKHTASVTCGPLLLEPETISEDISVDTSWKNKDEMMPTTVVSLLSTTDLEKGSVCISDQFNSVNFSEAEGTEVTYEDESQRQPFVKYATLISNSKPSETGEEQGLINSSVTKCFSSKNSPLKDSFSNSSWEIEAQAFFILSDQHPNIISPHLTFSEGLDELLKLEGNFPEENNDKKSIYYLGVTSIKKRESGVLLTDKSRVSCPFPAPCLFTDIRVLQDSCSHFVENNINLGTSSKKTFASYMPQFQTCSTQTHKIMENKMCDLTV

Molecule: human leptin K33A/Q34A/K35A (ligand)
- maximal phospho-STAT3 response, dose-response by phospho-flow cytometry, LepR-expressing HEK 293T cells, percent of WT leptin (% of WT leptin) [2]: 75

Molecule: human leptin S117N (ligand)
- maximal phospho-STAT3 response, dose-response by phospho-flow cytometry, LepR-expressing HEK 293T cells, percent of WT leptin (% of WT leptin) [2]: 45

B1: mouse LepR^D3-D7-zip (receptor)
chain: DVVYFPPKILTSVGSNASFHCIYKNENQIISSKQIVWWRNLAEKIPEIQYSIVSDRVSKVTFSNLKATRPRGKFTYDAVYCCNEQACHHRYAELYVIDVNINISCETDGYLTKMTCRWSPSTIQSLVGSTVQLRYHRRSLYCPDSPSIHPTSEPKNCVLQRDGFYECVFQPIFLLSGYTMWIRINHSLGSLDSPPTCVLPDSVVKPLPPSNVKAEITVNTGLLKVSWEKPVFPENNLQFQIRYGLSGKEIQWKTHEVFDAKSKSASLLVSDLCAVYVVQVRCRRLDGLGYWSNWSSPAYTLVMDVKVPMRGPEFWRKMDGDVTKKERNVTLLWKPLTKNDSLCSVRRYVVKHRTAHNGTWSEDVGNRTNLTFLWTEPAHTVTVLAVNSLGASLVNFNLTFSWPMSKVSAVESLSAYPLSSSCVILSWTLSPDDYSLLYLVIEWKILNEDDGMKWLRIPSNVKKFYIHDNFIPIEKYQFSLYPVFMEGVGKPKIINGFTKDAIDKQQNDAGEELLSKNYHLENEVARLKK
notes: leptin receptor (LepR), Mus musculus, domains D3-D7, residues 330-839; GCN4 leucine zipper, C-terminal, stands in place of the transmembrane domain; Secreted with an N-terminal HA signal peptide from the vector pD649; Dimerised by the leucine zipper; source: Expi293F, transiently transfected, purified from supernatant (Ni-NTA, SEC)
- binding result (mouse leptin [4]): binds

B2: mouse LepR^D1-D7-zip (receptor)
chain: NLAYPISPWKFKLFCGPPNTTDDSFLSPAGAPNNASALKGASEAIVEAKFNSSGIYVPELSKTVFHCCFGNEQGQNCSALTDNTEGKTLASVVKASVFRQLGVNWDIECWMKGDLTLFICHMEPLPKNPFKNYDSKVHLLYDLPEVIDDSPLPPLKDSFQTVQCNCSLRGCECHVPVPRAKLNYALLMYLEITSAGVSFQSPLMSLQPMLVVKPDPPLGLHMEVTDDGNLKISWDSQTMAPFPLQYQVKYLENSTIVREAAEIVSATSLLVDSVLPGSSYEVQVRSKRLDGSGVWSDWSSPQVFTTQDVVYFPPKILTSVGSNASFHCIYKNENQIISSKQIVWWRNLAEKIPEIQYSIVSDRVSKVTFSNLKATRPRGKFTYDAVYCCNEQACHHRYAELYVIDVNINISCETDGYLTKMTCRWSPSTIQSLVGSTVQLRYHRRSLYCPDSPSIHPTSEPKNCVLQRDGFYECVFQPIFLLSGYTMWIRINHSLGSLDSPPTCVLPDSVVKPLPPSNVKAEITVNTGLLKVSWEKPVFPENNLQFQIRYGLSGKEIQWKTHEVFDAKSKSASLLVSDLCAVYVVQVRCRRLDGLGYWSNWSSPAYTLVMDVKVPMRGPEFWRKMDGDVTKKERNVTLLWKPLTKNDSLCSVRRYVVKHRTAHNGTWSEDVGNRTNLTFLWTEPAHTVTVLAVNSLGASLVNFNLTFSWPMSKVSAVESLSAYPLSSSCVILSWTLSPDDYSLLYLVIEWKILNEDDGMKWLRIPSNVKKFYIHDNFIPIEKYQFSLYPVFMEGVGKPKIINGFTKDAIDKQQNDAGEELLSKNYHLENEVARLKK
notes: leptin receptor (LepR), Mus musculus, complete extracellular domain D1-D7, residues 23-839; GCN4 leucine zipper, C-terminal, stands in place of the transmembrane domain; Secreted with an N-terminal HA signal peptide from the vector pD649; Dimerised by the leucine zipper; source: Expi293F, transiently transfected, purified from supernatant (Ni-NTA, SEC)
- binding result (mouse leptin [5]): binds

Further lines, results first:

- phospho-STAT3 left, immunoblots, HEK-293T cells stably expressing hLepR, 10 nM WT leptin plus the variant, relative to WT leptin alone (% of WT leptin alone) [1]: 50
- reduction of phospho-SHP2 and phospho-ERK, immunoblots, HEK-293T cells stably expressing hLepR, 10 nM WT leptin plus the variant, 20 min [1]: 90 % reduction
Molecule: human leptin D23L/S117N (ligand)

- activation of ERK in cells expressing mouse LepR (the whole receptor on cells, not the zip construct) [3]: 5%
- activation of SHP2 in cells expressing mouse LepR (the whole receptor on cells, not the zip construct) [3]: 20%
- activation of STAT3 in cells expressing mouse LepR (the whole receptor on cells, not the zip construct) [3]: 60%
Molecule: leptin S117A used on cells expressing mouse LepR (from UniProt P41160 22-167) (ligand)

From PMC10066393, “Structural insights into the mechanism of leptin receptor activation” (Nature Communications, 2023)
